{"source": "patent US7728193B2", "about": "“Phytochrome-interacting protein and a use thereof” (Genomine Inc., priority 2004, dated 2010)", "key": {"[1]": {"tested_on": "autophosphorylated oat phytochrome A", "experiment": "Dephosphorylation of autophosphorylated phytochrome by PAPP5 in vitro", "format": "biochemical", "settings": "Rc 664 nm or FRc 748 nm irradiation for 5 minutes", "description": "First, KP buffer (20 mM Tris-HCl pH7.5, 30 mM MgCl2, 1 mM EDTA, 1 mM EGTA, 0.1% β-mercaptoethanol, 0.1% ethanol) containing 1 μg of purified oat phytochrome A (provided from Kumho Life and Environmental Science Laboratory, Korea) was set on ice and irradiated with Rc light output of 50 μmolS^−1m^−2 at 664 nm for 5 minutes. Then, the reaction solution was allowed to react with [γ-^32P]ATP in dark conditions for 30 minutes (autophosphorylation of phytochrome A). Following addition of 1 μg of each of the fusion proteins GST-PAPP5, GST-TPR and GST-PP2Ac prepared in Examples <4-1> and <5-1>, the reaction continued for more 30 minutes, and then stopped by adding 12 μl of 5× Tris-glycine SDS sample buffer under dim green safe light.\nNext, the present inventors investigated whether the phosphatase activity of PAPP5 depends on a change in the spectroscopic structure (photoconversion) of phytochrome molecules (Pr⇄Pfr). KP buffer solution containing phytochrome was set on ice and irradiated with a Rc light output of 50 μmolS^−1m^−2 at 664 nm (conversion of phytochrome into Pfr form) or a FRc light output of 50 μmolS^−1m^−2 at 748 nm (conversion of phytochrome into […]) for 5 minutes. Then, the autophosphylation/dephosphorylation test of phytochrome was performed in the same manner as described above."}, "[2]": {"molecular_target": "T1, phytochrome B (Arabidopsis thaliana, UniProt P14713)", "T1 sequence (P14713 1-1172)": "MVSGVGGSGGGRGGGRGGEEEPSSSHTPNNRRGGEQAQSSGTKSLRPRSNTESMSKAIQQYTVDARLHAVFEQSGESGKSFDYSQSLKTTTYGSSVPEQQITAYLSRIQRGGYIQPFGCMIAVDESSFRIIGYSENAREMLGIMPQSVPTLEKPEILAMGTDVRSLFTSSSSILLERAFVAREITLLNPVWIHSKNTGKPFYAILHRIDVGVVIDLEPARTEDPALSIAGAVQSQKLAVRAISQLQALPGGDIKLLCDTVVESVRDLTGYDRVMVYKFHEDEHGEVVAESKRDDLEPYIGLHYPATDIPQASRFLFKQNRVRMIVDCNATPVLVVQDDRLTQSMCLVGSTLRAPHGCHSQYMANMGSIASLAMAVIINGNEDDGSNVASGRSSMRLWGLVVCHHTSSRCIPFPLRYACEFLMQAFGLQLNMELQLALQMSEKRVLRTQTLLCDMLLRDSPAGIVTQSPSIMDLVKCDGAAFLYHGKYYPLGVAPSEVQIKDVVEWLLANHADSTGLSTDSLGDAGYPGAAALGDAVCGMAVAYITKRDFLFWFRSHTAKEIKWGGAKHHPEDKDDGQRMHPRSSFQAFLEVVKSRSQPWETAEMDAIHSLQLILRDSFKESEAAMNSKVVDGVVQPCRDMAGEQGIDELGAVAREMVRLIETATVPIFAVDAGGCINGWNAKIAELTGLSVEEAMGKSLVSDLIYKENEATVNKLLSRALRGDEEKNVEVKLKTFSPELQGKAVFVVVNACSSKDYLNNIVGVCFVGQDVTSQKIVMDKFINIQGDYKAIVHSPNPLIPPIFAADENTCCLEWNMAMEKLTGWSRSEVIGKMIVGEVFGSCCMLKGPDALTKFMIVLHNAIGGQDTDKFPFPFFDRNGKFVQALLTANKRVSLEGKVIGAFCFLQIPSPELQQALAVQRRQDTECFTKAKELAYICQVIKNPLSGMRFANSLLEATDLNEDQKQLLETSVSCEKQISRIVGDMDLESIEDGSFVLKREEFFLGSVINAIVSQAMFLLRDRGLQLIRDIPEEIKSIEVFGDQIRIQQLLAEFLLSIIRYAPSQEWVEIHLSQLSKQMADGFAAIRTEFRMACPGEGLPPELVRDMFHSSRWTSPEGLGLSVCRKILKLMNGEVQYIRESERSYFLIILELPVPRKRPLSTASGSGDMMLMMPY", "T1 sequence (Q84XU2 1-484 isoform Q84XU2-2 partner)": "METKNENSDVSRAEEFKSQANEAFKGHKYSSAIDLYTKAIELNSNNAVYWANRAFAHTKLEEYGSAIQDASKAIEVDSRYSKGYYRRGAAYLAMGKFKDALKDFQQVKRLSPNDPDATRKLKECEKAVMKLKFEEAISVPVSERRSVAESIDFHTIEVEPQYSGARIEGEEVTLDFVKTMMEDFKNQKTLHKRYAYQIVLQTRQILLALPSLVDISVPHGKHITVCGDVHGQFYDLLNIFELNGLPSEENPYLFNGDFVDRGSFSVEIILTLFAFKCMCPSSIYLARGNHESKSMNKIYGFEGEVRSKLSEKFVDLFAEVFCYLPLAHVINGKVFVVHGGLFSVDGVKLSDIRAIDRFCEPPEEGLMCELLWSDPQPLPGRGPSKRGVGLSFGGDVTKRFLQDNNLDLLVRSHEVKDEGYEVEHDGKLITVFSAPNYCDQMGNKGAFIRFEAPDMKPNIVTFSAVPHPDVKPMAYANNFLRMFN", "experiment": "In vitro binding assay (GST pull-down of 35S-labeled TnT protein)", "settings": "1 μg GST-PAPP5 fusion protein, 4° C."}, "[3]": {"experiment": "In vitro phosphatase assay: enzymatic activity of PAPP5 and its domain fragments on ρNPP", "format": "biochemical", "settings": "in the presence of 100 μM arachidonic acid", "description": "In order to examine whether the inventive PAPP5 protein has enzymatic activity, an enzymatic assay was performed using […] ρ-nitrophenyl phosphate (ρNPP) as a substrate. First, the GST-PAPP5 fusion protein purified in Example <4-1> was prewarmed at 30° C. for 1 minute. The prewarmed enzyme solution was added to 100 μl of kinase/phosphatase (KP) buffer (20 mM Tris-HCl pH 7.5, 30 mM MgCl2, 1 mM EDTA, 1 mM EGTA, 0.1% β-mercaptoethanol, 0.1% ethanol) containing O-400 mM ρNPP to initiate a reaction. To examine the autohydrolysis of ρNPP at each substrate concentration, the GST-PAPP5 enzyme solution was not added to a control group. After reaction at 30° C. for 15 minutes, 900 μl of 0.25N NaOH was added to terminate the reaction. The absorbance at 410 nm was measured. After subtracting the absorbance value of the control reaction solution containing all the components except for the enzyme from that of the reaction solution containing the enzyme, the rate was calculated using a millimolar extinction coefficient (17.8) of ρ-nitrophenolate ions.\nThus, in order to confirm if PAPP5 also have this property, the present inventors examined the phosphatase activities of GST-PAPP5, GST-TPR and GST-PP2Ac in the same manner as in Example <6-1>. At this time, the concentration of ρNPP was 100 mM."}}, "data": [{"substance": "PAPP5: type 5 serine/threonine protein phosphatase of Arabidopsis thaliana interacting with phytochromes, SEQ ID NO: 4", "values": [{"measurement": "dephosphorylation by PAPP5 according to the form of phytochrome (Pfr vs Pr)", "setting": "[1]", "value": "higher in Pfr phytochrome"}, {"measurement": "binding to phytochrome B", "setting": "[2]", "value": "has the property of binding"}, {"measurement": "Km (Michaelis-Menten)", "setting": "[3]", "value": 160, "unit": "mM ρNPP"}, {"measurement": "Vmax (Michaelis-Menten)", "setting": "[3]", "value": 22, "unit": "μmmol Pi released/min/mg"}]}]}
